In patent publication US8822187B1, “Polypeptides, nucleic acid molecules, and methods for synthesis of triterpenes” (University of Kentucky Research Foundation, priority 2011, dated 2014):
Entries after “also recorded” stand apart in the source; their conditions may differ.

Columns and labels:
[1] = Purified bacterial-expressed enzymes incubated with FPP, products by GC-MS or TLC/scintillation counting; assay type: biochemical; details: for squalene or botryococcene biosynthesis by purified enzyme in vitro: FPP as substrate, enzyme assayed alone
From the text: (§1) FIG. 6 depicts the functional characterization of the squalene synthase-like genes of Botryococcus braunii race B. The squalene synthase-like genes, SSL-1, SSL-2 and SSL-3, were expressed in yeast separately (SSL-1 (B), SSL-2(C) or SSL-3(D)) or in combinations (SSL-1+SSL-2(E), SSL-1+SSL-3(F)) and the hexane extractable metabolites profiled by GC-MS. The chemical profile of yeast not engineered with any gene constructs serves as the background control (A). […] Data (J) represents mean±S.E.M. obtained from three independent experiments (n=3). The chromatograms (A-I) are also annotated for the elution behavior of botryococcene (1), squalene (2), presqualene alcohol (3) and bisfarnesyl ether (4).
The recombinant vectors were transformed into E. coli strain BL21(DE3) according to the manufacturer's recommendations (Novagen). The selected lines were grown with kanamycin selection at 37° C. with vigorous shaking until the cultures reached an optical density of ˜0.8 (OD600 nm), then expression of the corresponding SSL gene induced by addition of 0.5 mM isopropylthio-β-D-galactoside (IPTG) and the cultures incubate for an additional 3 to 20 h with shaking at room temperature. One hundred ml of the culture was subject to centrifugation at 4,000 g for 10 min, the pelleted cells resuspended in 10 ml of lysis buffer containing 50 mM NaH2PO4, pH 7.8, 300 mM NaCl, 10 mM imidazole, 1 mM MgCl2, 1 mM PMSF, 1% glycerol (v/v), then sonicated 4× for 10 sec with a microprobe sonicator at 60% maximum power. The samples were cooled on ice for 2 min between sonication treatments. The sonicate was centrifuged at 16,000 g for 10 min at 4° C. and the supernatant used for purification of the hexa-histidine tagged enzymes.
Purification of the bacterial expressed enzymes was afforded by the amino-terminal hexa-histidine tag using His-Select Cobalt affinity gel (Sigma) columns according the manufacturer's recommendations. Recovery of proteins with the expected molecular sizes was determined by SDS-PAGE. The purified protein fractions were concentrated using Amicon Ultra (0.5 ml, 10K) centrifugation filter units and stored in 300 mM NaCl, 20 mM Tris-HCl pH 7.5, 5 mM dithiothreitol, 2 mM MgCL2, 50% glycerol (v/v) at −20° C. for 2-3 weeks without noticeable loss of activity.
Typical enzyme assays were initiated by mixing aliquots of purified enzyme with 50 mM Mops, pH 7.3, 20 mM MgCl2, 2.5 mM 2-mercaptoethanol, 10 μM [1-^3H]-FPP (˜2×10^5 dpm total), and 2 mM NADPH in total reaction volume of 50 μl. Reactions were incubated at 37° C. for 1 h and then extracted with 100 μl n-hexane or 100 ul MTBE. Forty μl of the n-hexane or MTBE extract was then spotted onto silica TLC plates with authentic standards of botryococcene and squalene and developed with n-hexane, or standards of bisfarnesyl ether and developed with n-hexane:MTBE, 25:1. The standards were visualized with iodine vapors and TLC zones corresponding to the standards were scrapped and analyzed by scintillation spectrometry. If Botryococcus lysate was added to enzyme assays, typically 5 μl of lysate (corresponding to 10 μg total protein) prepared from B. braunii cells according to Okada et al. (1) was added. […] Extracts were resuspended in 50 μl hexane and an aliquot analyzed by GC-MS with a Varian CP-3800 GC coupled to a Varian Saturn 2200 MS/MS (Varian Medical Systems) using a Supelco SLB-5 ms fused silica capillary column (30 m×0.25 mm×0.25 μM film thickness, Supelco). […]

TN7 yeast line = experiment: Expression of SSL genes in TN7 yeast line, hexane extractable metabolites by GC-MS; assay type: cell-based
From the text: as §1
FIG. 10 includes a comparison of botryococcene production in yeast engineered with different configurations of SSL-1 and SSL-3. Yeast line TN7 was engineered with the SSL-1 and SSL-3 genes on separate plasmids (squares), with gene fusions (SSL-1 fused to SSL-3 via a triplet repeat of GGSG (triangles), or vice versa (diamonds)), or with 63 or 71 amino acids of the carboxy terminus of the Botryococcus squalene synthase, sequences containing a membrane spanning domain, appended to the carboxy termini of the SSL-1 and SSL-3 enzymes, respectively (circles). The data represents mean±S.E.M.
The various recombinant yeast expression vectors were introduced into the TN7 yeast line via lithium acetate transformation, followed by selection for uracil and leucine auoxtrophic growth (Takahashi, et al. (2007)). […] Individual colonies of TN7 and the various TN7-transformants were subsequently grown in 25 ml of YPDE (nutrient rich) or Yeast Synthetic Drop-out medium (selection) for the indicated time at 25° C. before analyzing the cultures for production of novel triterpene components. In brief, 1 ml aliquots of the culture were combined with 1 ml of acetone, vigorously mixed, and incubated at room temperature for 10 min. One ml of hexane was added and mixed vigorously for 60 sec. […] The dried extract was resuspended in 50-500 μl of n-hexane and a 1 μl aliquot analyzed by GC-MS as described above. […]

[2] = SSL-2 incubated by itself, NADPH-dependent

Row | Molecule | squalene or botryococcene biosynthesis by purified enzyme in vitro [1] | products accumulating in yeast (TN7 yeast line; gene expressed separately in yeast) | bisfarnesyl ether share of products [1, 2] [%] | squalene share of products [1, 2] [%] | squalene accumulating, share of the total (TN7 yeast line; expressed in yeast)
1 | Botryococcus braunii race B squalene synthase-like 1 (SSL-1), wild type, hexa-histidine tagged, SEQ ID NO: 2 (Botryococcus braunii) (protein) MTMHQDHGVMKDLVKHPNEFPYLLQLAATTYGSPAAPIPKEPDRAFCYNTLHTVSKGFPRFVMRLPQELQDPICIFYLLLRALDTVEDDMNLKSETKISLLRVFHEHCSDRNWSMKSDYGIYADLMERFPLVVSVLEKLPPATQQTFRENVKYMGNGMADFIDKQILTVDEYDLYCHYVAGSCGIAVTKVIVQFNLATPEADSYDFSNSLGLLLQKANIITDYNEDINEEPRPRMFWPQEIWGKYAEKLADFNEPENIDTAVKCLNHMVTDAMRHIEPSLKGMVYFTDKTVFRALALLLVTAFGHLSTLYNNPNVFKEKVRQRKGRIARLVMSSRNVPGLFRTCLKLANNFESRCKQETANDPTVAMTIKRLQSIQATCRDGLAKYDTPSGLKSFCAAPTPTK | did not exhibit either squalene nor botryococcene biosynthesis | accumulated to significant levels | – | – | –
2 | SSL-2: Botryococcus braunii race B squalene synthase-like 2 enzyme; bacterial form is truncated SSL-2-tr2 (protein) MVKLVEVLQHPDEIVPILQMLHKTYRAKRSYKDPGLAFCYGMLQRVSRSFSVVIQQLPDELRHPICVFYLILRALDTVEDDMNLPNEVKIPLLRTFHEHLFDRSWKLKCGYGPYVDLMENYPLVTDVFLTLSPGAQEVIRDSTRRMGNGMADFIGKDEVHSVAEYDLYCHYVAGLVGSAVAKIFVDSGLEKENLVAEVDLANNMGQFLQKTNVIRDYLEDINEEPAPRMFWPREIWGKYAQELADFKDPANEKAAVQCLNHMVTDALRHCEIGLNVIPLLQNIGILRSCLIPEVMGLRTLTLCYNNPQVFRGVVKMRRGETAKLFMSIYDKRSFYQTYLRLANELEAKCKGEASGDPMVATTLKHVHGIQKSCKAALSSKELLAKSGSALTDDPAIRLLLLVGVVAYFAYAFNLGDVRGEHGVRALGSILDLSQKGLAVASVALLLLVLLARSRLPLLTSASSKQ | neither bacterial-expressed, purified enzymes exhibited any botryococcene biosynthesis; also recorded: low capacity for squalene biosynthesis | – | ~90 | ~10 | ~10 % of the total
